Test results published in publication PMC9851988.

Target: His7-SUMO-Arc-C11^CFAS (not stated | E. coli)
Assay: BLI

Substance: anhydrotrypsin (enzyme)
- equilibrium response signal relative to His7-SUMO-Arc-C11^CFAS/R11A: 6 fold
